From US20170189524A1 (IMMUNOQURE, published 2017)

B1: recombinant human IL-20 (ligand, UniProt Q9NYY1 25-176, looked up)
chain: LKTLNLGSCVIATNLQEIRNGFSEIRGSVQAKDGNIDIRILRRTESLQDTKPANRCCLLRHLLRLYLDRVFKNYQTPDHYTLRKISSLANSFLTIKKDLRLCHAHMTCHCGEEAMKKYSQILSHFEKLEPQAAVVKALGELDILLQWMEETE
notes: also called rhIL-20; hIL-20
B7: recombinant mouse IL-20 (ligand, UniProt Q9JKV9 25-176, looked up)
chain: LKTLHLGSCVITANLQAIQKEFSEIRDSVQAEDTNIDIRILRTTESLKDIKSLDRCCFLRHLVRFYLDRVFKVYQTPDHHTLRKISSLANSFLIIKKDLSVCHSHMACHCGEEAMEKYNQILSHFIELELQAAVVKALGELGILLRWMEEML
notes: also called rmIL-20; murine IL-20

Legend:
[1] = molecular target: T1, Type I IL-20 receptor (IL-20RA/IL-20RB) on transfected HEK 293T MSR cells (human, UniProt Q9UHF4 30-553; Q6UXL0 30-311); assay: LCBA, competition with g1 IL-20 on cells expressing Type I IL-20 receptor
T1 construct: whole, on cells; also called IL-20 receptor Type I; IL20RA-Myc-DDK and IL20RB-Myc-DDK; not shown: Myc-DDK tag
T1 sequence (looked up) 1: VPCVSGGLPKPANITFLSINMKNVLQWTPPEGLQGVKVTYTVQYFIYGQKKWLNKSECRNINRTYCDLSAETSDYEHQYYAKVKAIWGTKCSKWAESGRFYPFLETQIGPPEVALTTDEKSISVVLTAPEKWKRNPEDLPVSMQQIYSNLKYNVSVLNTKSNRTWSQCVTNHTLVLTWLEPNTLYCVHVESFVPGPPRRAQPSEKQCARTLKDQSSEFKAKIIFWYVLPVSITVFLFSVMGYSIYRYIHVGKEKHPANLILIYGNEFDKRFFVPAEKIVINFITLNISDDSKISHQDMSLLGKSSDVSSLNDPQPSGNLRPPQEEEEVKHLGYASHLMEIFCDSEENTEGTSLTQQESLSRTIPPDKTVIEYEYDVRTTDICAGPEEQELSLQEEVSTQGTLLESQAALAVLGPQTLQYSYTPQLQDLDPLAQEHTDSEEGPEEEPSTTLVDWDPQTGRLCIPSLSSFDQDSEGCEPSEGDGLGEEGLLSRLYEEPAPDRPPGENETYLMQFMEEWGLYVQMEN
T1 sequence (looked up) 2: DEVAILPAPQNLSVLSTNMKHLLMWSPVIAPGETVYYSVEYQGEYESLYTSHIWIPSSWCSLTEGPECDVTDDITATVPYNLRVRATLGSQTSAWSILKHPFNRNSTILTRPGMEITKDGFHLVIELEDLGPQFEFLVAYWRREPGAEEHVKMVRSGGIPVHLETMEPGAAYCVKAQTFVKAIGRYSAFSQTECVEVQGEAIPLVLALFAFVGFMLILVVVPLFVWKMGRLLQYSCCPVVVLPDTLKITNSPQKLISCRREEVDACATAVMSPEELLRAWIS

[2] = molecular target: T2, g1 IL-20 (fusion protein of human IL-20 with Gaussia luciferase at the IL-20 N-terminus) (human, UniProt Q9NYY1 25-176); assay: GLuc-sandwich ELISA, fusion protein captured by anti-GLuc antibody, serial dilution of MAB
T2 construct: also called IL-20-Gaussia luciferase fusion protein; GLuc-IL-20; not shown: Gaussia luciferase (pGaussia1 vector)
T2 sequence (looked up): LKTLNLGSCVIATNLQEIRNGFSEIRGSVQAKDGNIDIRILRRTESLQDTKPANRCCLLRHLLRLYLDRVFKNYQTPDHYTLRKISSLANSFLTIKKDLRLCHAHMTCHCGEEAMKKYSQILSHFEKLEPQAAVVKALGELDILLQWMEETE

[3] = molecular target: T3, g2 IL-20 (fusion protein of human IL-20 fused C-terminally to Gaussia luciferase) (human, UniProt Q9NYY1 25-176); assay: as above
T3 construct: order of the parts inferred from 'fused; C-terminally (g2 IL-20) to Gaussia luciferase'; the wording is ambiguous; also called GLuc-IL-20; not shown: Gaussia luciferase
T3 sequence (looked up): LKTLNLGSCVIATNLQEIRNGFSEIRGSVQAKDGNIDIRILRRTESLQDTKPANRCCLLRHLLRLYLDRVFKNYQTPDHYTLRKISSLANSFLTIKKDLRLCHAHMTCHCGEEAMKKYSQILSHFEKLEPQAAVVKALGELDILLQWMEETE

[4] = molecular target: T4, g1 IFNW (fusion protein of human IFNW with Gaussia luciferase) (human, UniProt P05000 22-195); assay: LCBA cross-competition, g1 IFNW preincubated with soluble antibody (FIG. 18)
T4 construct: also called IFNW-Gaussia luciferase; human IFNW-Gaussia luciferase fusion protein; not shown: Gaussia luciferase

[5] = molecular target: T2, g1 IL-20 (fusion protein of human IL-20 …); assay: GLuc-sandwich ELISA
[6] = molecular target: B7; assay: competition GLuc-sandwich ELISA: soluble mouse IL-20 titrated against antibody 1 µg/ml on captured g2 IL-20
[7] = molecular target: T1, Type I IL-20 receptor (IL-20RA/IL-20RB) …; assay: LCBA, competition with g1 IL-20 (FIG. 7E)
[8] = molecular target: B1; assay: cell-based or functional assay
[9] = molecular target: B7; assay: cell-based or functional assay
[10] = molecular target: T5, peptide 19 of human IL-20, NYQTPDHYTLRKISSLAN (human); assay: 18mer peptide microarray of human IL-20
T5 construct: spotted on a glass microarray through a hydrophilic linker
T5 peptide: NYQTPDHYTLRKISSLAN

[11] = molecular target: T6, corresponding 18mer peptide derived from mouse IL-20 (differs from the human IL-20 101-118-peptide at Y104H … (mouse)); assay: 18mer peptide microarray of murine IL-20
T6 construct: also called corresponding peptide derived from mouse IL-20
T6 peptide: PDHHTLRKISSLANSFLI

[12] = molecular target: T7, peptide 20 of human IL-20, 101-PDHYTLRKISSLANSFLT-118 (human); assay: 18mer peptide microarray of human IL-20, Cy5 anti-human IgG detection
T7 construct: spotted on a glass microarray through a hydrophilic linker; also called human IL-20 101-118-peptide
T7 peptide: PDHYTLRKISSLANSFLT

[13] = molecular target: T2, g1 IL-20 (fusion protein of human IL-20 …); assay: chemiluminescent cell-binding assay (FIG. 8D): inhibition of g1 IL-20 binding to HEK 293T MSR cells expressing IL-20 receptor; receptor type for this value not stated

T4 sequence (P05000 22-195): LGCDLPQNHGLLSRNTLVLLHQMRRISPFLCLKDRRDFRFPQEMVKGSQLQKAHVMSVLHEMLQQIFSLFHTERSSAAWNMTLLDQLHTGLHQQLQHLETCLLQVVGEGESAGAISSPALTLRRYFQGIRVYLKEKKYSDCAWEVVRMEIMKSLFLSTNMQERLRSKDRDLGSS

B1
binding result [1]: binds

B2: antibody 2A11 (antibody, IgG1, V domains shown)
VH: QVHLVQSGAEVKKPGSSVKVSCKASGGTFNNFPMSWVRQAPGRGLEWMAGIIPVFGSANYAQQFHGRVTISADISTSTVSMELNDLKSEDTGVYYCAISGDEDNWIMNFWGQGTLVTVSS
VL: QSLLTQPPSVSGAPGQRVTISCTGSSSNIGAGYDVHWYQQVPGTAPKLLIYGNRNRPSGVPDRFSGSKSGTSASLAITGLQAEDEADYYCQSYDSSLSGHAVFGGGTKVTVLR
notes: IgG1, lambda; also called MAb 2A11
EC50 [2]: 0.0098 µg/mL | EC50 [3]: 0.0065 µg/mL

B3: antibody 26B9 (soluble) (antibody, human IgG1, kappa, V domains shown)
VH: QILLQESGPGLVKPTETLSLTCSVSGDSISDSSHYWAWIRQPPGKGPEWIGSVYFSSMTHYNPSLKSRVSISVDKPKNQFSLKVTSVTVADTATYYCARQALARVGAMNWFDPWGQGSLVTVSS
VL: DIIMTQSPDSLPVSLGEGVTINCKSSQSVFFTSSNKSCLAWYQQKPGKSPKLLIYWASTRQSGVPDRFRGSGSGTDFSLTITSLQAEDVAVYFCQQCQTSPPTFGGGTRLEIKR
notes: IgG1, kappa; also called soluble 26B9
binding result [4]: binds

B4: antibody 31B4 (antibody, human IgG1, kappa, V domains shown)
VH: QIQLQESGPGLVRPTETLSLTCSVSGDSISQSSHYWAWIRQPPGKGPEWIGSVYFSSMTHYNPSLTSRVSISIDKAMNKFSLKVTSVTVADTATYYCARQALARVGAMNWFDPWGQGSLVTVSS
VL: DIIMTQSPESLPVSLGEGVTINCKSSQSVFFTSSNRSCLAWYQQKPGQSPKLLIYWASTRQSGVPDRFTGSGSGTDFSLTIAGLQVEDVAVYFCQQCHASPPTFGGGTRLELRR
notes: IgG1, kappa; clonally related to 26B9
binding result [4]: binds

B5: antibody 7D1 (antibody, human IgG1, lambda, V domains shown)
VH: EVQLVASGGDFIQPGRSLRLSCAASGFKFDDYAMFWVRQVPGRGLEWVSGISWSSDKMAYVDSVKGRFTISRDNAKNTLYLQMNNLRPDDTAFYYCAKGGFSSVWNYFDFWGQGTLVTVSS
VL: QSVLTQPPSASGTPGQTVIISCSGTTSNIGSNTVSWYRQLPGAAPKLLIFTYNQRPSGVPDRFSGSKSGTSASLAISGLQSDDEADYYCAVWDDALGGWVFGGGTKLTVLG
notes: IgG1, lambda; also called MAb 7D1
EC50 [5]: > 5 µg/mL | EC50 [2]: 5.87 µg/mL | EC50 [3]: 0.0271 µg/mL

B6: antibody 6E11 (antibody, IgG1, V domains shown)
VH: QVQLVQSGAEVKKPGSSVKVSCKASGGTFRNYAINWVRQAPRQGLEWMGSLVPMFTSPTYAQKFRGRVTISADESTATSSMELTSLTSEDTAVYFCSADGYKGGLFYGMNVWGQGTTVTVSS
VL: DIVLTQSPESLAVSLGERATINCKSSQSVLYSSNSKNYLAWFQQKPGQPPKLLIYWASTRESGVPDRFSGSGSGTDFTLTITSLQAEDVAVYYCHQYHTLPRTFGHGTKVEIKR
notes: IgG1; also called MAb 6E11
EC50 [2]: 0.128 µg/mL | EC50 [3]: 0.347 µg/mL | binding result [6]: no binding (tested: 10 µg/ml to 4.6 ng/ml)

B7
binding result [7]: binds

B8: antibody 20A10 (antibody, human IgG4, kappa, V domains shown)
VH: QVQLVQSGAEVKKPGSSVKVSCKTSGGTFSTSTLSWVRQAPGQGLEWLGGMIPILSRTTYAQKFQGRLTITADEPTSTSYMELSSLKSEDTAVYYCATEGEVSAAHNYYYGMDVWGQGTTVTVSS
VL: DIVLTQSPLYLPVTPGEPASISCRSSQSLLHGNGHNYLDWYLQKPGQSPQLLIYLGSNRASGVPDRFSGSGSGTDFTLKISRVEAEDVGVYYCMQTLHTVFTFGPGTRVDIKR
notes: Recombinant human-derived antibody; also called MAb 20A10; 20A0
IC 50 in the KZ136-NLuc reporter assay [8]: 0.33 µg/mL | IC 50 in the pSTAT3 Western blot assay (25 ng/ml rmIL-20, Type I IL-20 receptor) [9]: 1870 ng/ml | binding result [10]: no binding | binding result [11]: no binding | binding result [12]: binds | EC50 [2]: 0.0186 µg/mL | EC50 [3]: 0.021 µg/mL | IC50 [13]: 0.00403 µg/mL
